Measured values published in the DeepSol protein solubility set.

test: soluble on expression in E. coli; label from the status in PepcDB or PDB records

Row | Sequence | soluble on expression in E. coli
1 | MVQQSEVRQMKHSVSTLNQEMTQLNQETVKITQQNRLNAKSSSGVYLLPGAKTPARLESQIGTLRMSLVNITPDADGTTLTLRIQGESNDPLPAFSGTVEYGQIQGTIDNFQEINVQNQLINAPASVLAPSDVDIPLQLKGISVDQLGFVRIHDIQPVMQLEHHHHHH | soluble
2 | MRNKADNKKRNFLTHSEIESLLKAANTGPHATRNYCLILLCFIHGFRASEICRLRISDIDLKAKCIYIHRLKKGFSTTHPLLNKEVQALKNWLSIRTSYPHAESEWVFLSRKGNPLSRQQFYHIISTSGGNAGLSLEIHPHMLRYSCGFALANMGIDTRLI | not soluble
3 | MSLSEFEKYYPKISNLSTKLLDNPELGFKEYQTSKLIEDEIKSISPSIKVEHYLGTGLKVIFDNHKPKTIGIIAEMDDLYQPKHFKANPETGAAHACGHYTQVGIALAMINEIVKAERLKEFGTNLAFIFTPAEEFVDLDWRQEQKAKHKLDYFGGKQEAIKQGLFDHINYCVSVHAIGEEFKQRTVEINCDLAGFNFKYFDFYGEASHAAFAPESGVNAQSIATLFTTALALQRQQIKNPNRIRFNPVVIGENTESINVIPDHVKMGSDLSFFDIKYVQSLMKKFDQAAQGCASALGGKAKITTQVGYLPLHSNREMNALVKDTFLQEDRIPGLIENRGYTMAAGDIGDVGFIMPTIQIGYGGWTGTIHGSDFKLIDPEFVLKIFPEFVFNSTLNISNHLEKIDEYHHTKREYLKALKKMEGEGHHHHHH | not soluble
4 | MGSDKIHHHHHHMVDSLKKPGFEEIRPGVKVPAKETLLTPRFYTTDFDEMARMDISVNEDELLAILEEFRTDYNRHHFVRDAEFEKSWDHIDGDTRRLFVEFLERSCTAEFSGFLLYKELGRRLKDKSPVLAECFNLMSRDEARHAGFLNKAMSDFNLSLDLGFLTKSRNYTFFKPKFIFYATYLSEKIGYWRYITIYRHLEAHPEDRIYPIFRFFENWCQDENRHGDFFDAIMKSQPQMLNDWKAKLWSRFFLLSVFATMYLNDIQRKDFYASIGLDARDYDIYVIKKTNETAGRVFPVILDVDSPEFYERLDICVENSEKLSAIASSNTPKFLQFFQKLPVLASTGWQLLRLYLMKPIDAVSAQGAAR | not soluble
5 | PSPSTEQSAKKVRKKAENAHNTPLLVLYGSNMGTAEGTARDLADIAMSKGFAPQVATLDSHAGNLPREGAVLIVTASYNGHPPDNAKQFVDWLDQASADEVKGVRYSVFGCGDKNWATTYQKVPAFIDETLAAKGAENIADRGEADASDDFEGTYEEWREHMWSDVAAYFNLDIENSEDNKSTLSLQFVDS | soluble
6 | MSLQILTRKMPGQFKVGCMDLMIEEAAGSGLFMRLFFPTDSEITGPSSLPVWIPRPEYAYGVGEYLGHSPHQMDLISSLVIGDKRVDCIDNAQLSTKSDKWPVLVFSHGLGGSRTFYSTYCTSLASHGYVVAAVEHRDSSACWTYKLVEKNGTLVEKPMKIKLVDRNDKDQFKIRNEQVGKRAEECAKAVKILEQLDSGNVKDKVIIGNNANLEFFKNKLLTTTASIIGHSFGGATSIASSSSDFQKAIVLDGWMYPLDQNQQEQAKQPIMFLNVGDWQWNENLEVMRKILPNNEGNILLTLSGAVHQSFTDFPFVFPNWLAKQFGVHGPTEPYLCMQSAIELTLSFLKDGKEGHHHHHH | not soluble
7 | MEYRKVGKWGVKISELSLGSWLTFGKQLDLDTATEVVKKAFNSGINFFDTAEAYAGGIAEAMLGKILKNFRREDLVVSTKIFWGGSGPNDLGLSKKHLLEGTWNSLKRLQMDYVDILYCHRPDPNVPMEEVVFAMDYILREGLALYWGTSEWSAKEIEEAHRVCKELGVMPPIVEQPQYNMFVRERVEKEYAPLYEKYGMGLTTYSPLASGLLSGKYNNGIPEGSRLATFPQVRKWLEEGGLLNEKTFKKLRKLQNIADQLGASLPQLAIAWILKNKNVSSVILGVSRPEQLEENLKAVEIKEKLTEDVMEEIEKILNE | soluble
8 | MSLSISFNNIPSALRVPLTYIEFDNTKAVSGPPTALHKVLMLGTKLATGSAKAGEAVRVSAYAQAKTLFGRGSQLAEMVKTFKAHNSTLDLWVLPLDEAPSGAKATGSVQITGTATQAGTFSLMIAGNNYKTAVTSGDTADVVAGKLQKLIAADQDVPVVATVAGNTITLTCRFKGETGNEIDLRCNYYSGEAFPEGLKATITDMKNGAVNPDMSVAITGLGAEWWNYIINPFTDTESLNLLRADLVKRWGPLKQIDGICFMAKRGTHAEVTTFAEQRNDYLFSLLATHKAPQPAYLWASAYAAVVAGSLAIDPARPVQTLVMDLLPPSMSDRWDLPERNTLLYSGVSTYTVNAGSQPQVEAAITMYRKNAFGDNDESYLYVETIATLSYLRYAIRSRITQKFPRHKLANDGTRIGPGQAIVTPKIIRNELLALFTELEFAGLVEDFEQFNQTLFVERDSNNPCRVNVLSNENLVNQFRIYAHAIQFILEGHHHHHH | soluble
9 | MGHHHHHHSHMGIKYHEESIHAAYVHVIENSRHYIYIENQFFISCADDKVVFNKIGDAIAQRILKAHRENQKYRVYVVIPLLPGFEGDISTGGGNALQAIMHFNYRTMCRGENSILGQLKAELGNQWINYISFCGLRTHAE | soluble
10 | MFEGKLVRLRAYRKEDIEKALEFANDPEVKKCLVPGIPFPWRKEDEEKWYQSLNPFSTDSYSFAIEKLSDGEYIGGCSINKIDWKNSVAEVGIFLGRPYWSQGYGTDAMRVLVRFIFNEMNMNKIKLHVFSFNERAKRVYEKIGFKVEGILRQELFREGRYHDVIVMGLLKSEWEDLTETDL | soluble
11 | SAALRYAGLDDTDSEDELPPGWEERTTKDGWVYYANHTEEKTQWEHPKTGKRKRVAGDLPYGWEQETDENGQVFFVDHINKRTTYLDPRLAFTVDDNPTKPTTRQRYDGSTTAMEILQGRDFTGKVVVVTGANSGIGFETAKSFALHGAHVILACRNMARASEAVSRILEEWQQGAATTVYCAAVPELEGLGGMYFNNCCRCMPSPEAQSEETARTLWALSERLIQERLGSQSG | soluble
12 | MMFNNNNWKLSVTDINLYENTVSLDGQPYPLSLAIKTLIPGYLSGLPSTSREAMELLEALAEAGVTIGNFFSNDLMTAYGRRQMNKRAEAERIAKEQRLQAERMREENMTDAEWQKELQRREQVKAERRTYGESLRSATHSAGRSRAAIVADLESGGNWMDSL | not soluble
13 | MNFLEASWEEREVTAYKAILGDTGLGIFPLSHELFKRMSASGINPRWLTHGVFKSPPNGNRSTWAYITSGMSNPWETNEPEEHSGLGVEFIIETEKEETWAVEVLQMLMAYNLLLAAGQMGDFPLLGDGDRVPLALSDAIRTMMFTQPVSFPHCFSLKSGRVDLLQVVGITPAELQVAKQTSSDKIRTQLISKLGSLVTSKERESVVLEHHHHHH | not soluble
14 | MADVFEFELEGHESQASPQRHAYHYDNCTEIMEDDHMYSNVADGQISAPPPSSSYMEDPMMESIQLCASAINPPNVRVGPEDFQLLKVLGKGGYGKVFQVRKTTGSDNGQIFAMKVLQKATIVRNQKDTAHTKAERNILEAVKSPFICDLLYAFQTGGKLYLILEYLSGGELFMHLEREGMFMENVAKFYLSEIVVSLEHLHQQGIIYRDLKPENILLDAYGHVKLTDFGLCKEEIEGDQKTHTFCGTIEYMAPEILMRCGHGKAVDWWSLGALMFDMLTGGPPFTAENRRKTIDKILKGRLTLPAYLSNEARDLIKKLLKRHVDTRLGAGLSDAEEIKSHAFFKTTDWNLVYARQLEAPFKPNIENDEDTSLFDARFTKMTPVDSPCETNFSLNGDNPFVGFTYVAPSVLEMMNKGGHGGISVAHLASSMSRAGAAKSPRKPGDPETASILHGGHSNLFGHGPNSEAPQAFGYGIGSQMTTTTAGGAGIQQPYQSFSGGYPEDDAMDTSTPRASESRETTTGNGSTTTTRPSNVGSSASTPIPLPKRVIKLPHTHTSTQNAQYSFMLLLLNVSLFFHFF | not soluble
15 | MLRRGLSRPEPRLLSKRYLSSATGGGSAGTTEGGSSETTPLRPRPNALTDEIIRVDHAGELGADRIYAGQMAILGNGPLGKTIGHMWEQEKEHRKQFEQLIQQHRVRPTIMTPIWNVAGFVLGAGTALMGEKAAMACTVAVETVIVEHYNDQLRQIMEAPNPDKELLATITKFRDEEQEHHDTGIDHGAEQAPFYQAMTEVIKFGCKTAIAISKKILEHHHHHH | not soluble
16 | MTDTNSQWIEMNLQRQRKMLEDKQKQKRHQSAGSVRTTSTAMSMNSMKDYPTFDNSLPFSISDNSSVSVSMNTPLIPTQDPIAQPRMQSMPRQQPQQVQESLISIGDYPDNDINAKLSKVNLTSCVVSDDEDEDKRSYADSPWNTDVVADRIPSEVLPDYNFIKNNLAKFVEDPAVEHCLYKCSITRQKSGVDKGMFPTYFLHLEEFDTDKRQKIFLLAARKRKKSTTANYLLSTDPTNLSREGEGYCAKVRSNALGTQFTVYDSGQNPKKTTNHAAIRQELAAVIYETNVLGFKGPRKMTIVMPGIEPPTENRPAVRCPVRPIQDKHTLLERYRLNDLDSLKILSNKSPQWNDETQSYVLNFHGRVTQASVKNFQIIHQSSPEYIVMQFGRISDDEFTMDFRYPLSAVQAFGIAMTSFHGKLACE | not soluble
17 | GPGSMEFVAEAHGYLITGLALDSQGDLFAICSCSGELLRLNKEENTLVSIMATEASPYNIAIEPNSGSVFITDRSENAILKLEDAATVRAEQELREGKDQESQAAYTTVQYLNAFEGRSFLGPTAIAFSPSGELFFTDAGAEGDSSFSDPVGAVYRTTMNHEHLVPICTRGLIRPSAIAVAPDNSVYVCEQGTNRVLRFVQRSTFYVGNVFAQLQGGMGPRAIAVSPRDGSVFVAQYDISAVEAPTEEGESEKGNEDAGEGEGGDDGKVQNQSALESAGEGGIITVLGRDGDVRGIVRTMRPCITAIALDASGETLYVMEGDEANGSSKLYKLQVLPLDDQQCGGQAE | not soluble
18 | MTSMEEMLREAANEVLQSRIPPGYVLYPNYEQYWSHEHGMFYNPDTEQFYRPEDKTVYQLNAEGSEYVLVERRKPTYWASRSYRKRAIDLLGSAEFKKFDQNEVNICEIAFGMVDKVIKGEEMEKEKEYLRSIANNKVALMQHRINKVFKGNRRRKNPHRQYVANVDESSGHVEYTLQVDDYFDWEDAYEDNSDDEFSEKDEQAVLMHQEGFDQPPCMRVMDALRRLHIITISGGYLGSDRDCEIVVSNQLLPERCAEIVYSEEAQCYSIEKLEDACILQVNGNNVKTSSPVDLCQGDSILLSGERFDVHVHNGSNTCPGCEPGLQQGDDDIAPVTTVPAKNIRGEVARRKNLKQMMKSYGIRPDDVLSEPIRKRPATGPSEMNIHRSEAPGSSSDMYGSCAAKPMPEGQRKFDLPSTSAAVAAAAAPKPLDSGNVGFKLLKSMGWSEGQGLGKEKQGHVEPVATEVKNNRKGLGANEKEPPTKSYKDQVLEKTKQRFNEKR | not soluble
19 | MGSDKIHHHHHHMEENIWWRGKDYIEEDEDIKKWNSAKFKWIPKEINKISLQPFSLNFIVGPRQVGKTTLIKLLIKKLLESNHNPLSIFYCSCDLVSDYEELLKRTRDYLKIRKQEGIKSSFIFLDEVTFVKEWYRAVKHLIDTGELTSDVVTVSGSSSLTILKQKESFPGRRGNGTDVILYPLSFSGYINVINPKIEVRPGWYSEIEELFESYLKVGGLPPSINGLSPLKTYTEWIIYEINRVGRDEMLAKQILSAVLSTTPSKVSYNSIAKEIGVNHRTVAEYIKLFNDMFLTLTLHFIDVNTGYYNYRKQIKIHFVDPLFYDVMSTWTGVKRPDDPIIVEGIVASHLSRIYSIGYTEVGKEEIDVVTLPEVIGYEVKYRERTKQVKVIAGKMKKVITLSKHGENDTFPVHLFLAELNI | not soluble
20 | MSLKIAVTGGTGFLGQYVVESIKNDGNTPIILTRSIGNKAINDYEYRVSDYTLEDLINQLNDVDAVVHLAATRGSQGKISEFHDNEILTQNLYDACYENNISNIVYASTISAYSDETSLPWNEKELPLPDLMYGVSKLACEHIGNIYSRKKGLCIKNLRFAHLYGFNEKNNYMINRFFRQAFHGEQLTLHANSVAKREFLYAKDAAKSVIYALKQEKVSGTFNIGSGDALTNYEVANTINNAFGNKDNLLVKNPNANEGIHSSYMDSSKAKELLDFSTDYNFATAVEEIHLLMRGLDDVPLWYEGHHHHHH | soluble
